Measurements from US20100255006A1 (Takeda / Millennium, published 2010).

How the values were obtained:
[1] = target: caspase-1 as expressed in the IL-1β secretion assays (UniProt P29466); assay: cell-based or functional assay
[2] = target: CARD-5 (ASC) as expressed in the NF-kB and IL-1β secretion assays (UniProt Q9ULZ3 1-195); assay: cell-based or functional assay
[3] = target: T1, CARD of caspase-1 (mammalian two-hybrid construct) (UniProt P29466 1-91); assay: mammalian two-hybrid in 293T cells, pFR-Luc firefly reporter
T1 construct: domain: CARD; also called the CARD of caspase-1; not shown: two-hybrid fusion partner from a pCMV/AD or pCMV/BD plasmid
T1 sequence (looked up): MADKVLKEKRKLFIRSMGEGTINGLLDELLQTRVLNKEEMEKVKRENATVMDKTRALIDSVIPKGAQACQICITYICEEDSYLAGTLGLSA
Procedure: CARD-5 is a relatively small protein containing an N-terminal PYRIN domain and a C-terminal CARD domain (see, e.g., Masumoto et al. (1999) J. Biol. Chem. 274:33835-38). To identify whether the CARD domain of a CARD-containing protein interacted with the CARD of CARD-5, mammalian two-hybrid analysis was carried out using the CARD domains of 22 CARD-containing proteins (FIG. 13A). Mammalian two-hybrid assays were performed as described by Wang et al. (2001) J. Biol. Chem. 276:21405-21409. 293T cells were transfected with pCMV/AD and pCMVIBD plasmids, pFR-Luc firefly reporter (Stratagene), and pRL-TK Renilla reporter (Promega).

In the case of “CARD-5 (ASC) as expressed in the NF-kB and IL-1β secretion assays (from UniProt Q9ULZ3 1-195)”, the secreted IL-1β (ELISA of supernatants of COS-7L cells co-transfected with mouse pro-IL-1β) [1] is reported as 150 to 400 pg/mL.

B1: full-length PYRIN-8 (PYRIN-8-FL, residues 1-1061 of SEQ ID NO:18) with a C-terminal FLAG epitope (other, not shown: small tags and cut ends)
chain: MLRTAGRDGLCRLSTYLEELEAVELKKFKLYLGTATELGEGKIPWGSMEKAGPLEMAQLLITHFGPEEAWRLALSTFERINRKDLWERGQREDLVRDTPPGGPSSLGNQSTCLLEVSLVTPRKDPQETYRDYVRRKFRLMEDRNARLGECVNLSHRYTRLLLVKEHSNPMQVQQQLLDTGRGHARTVGHQASPIKIETLFEPDEERPEPPRTVVMQGAAGIGKSMLAHKVMLDWADGKLFQGRFDYLFYINCREMNQSATECSMQDLIFSCWPEPSAPLQELIRVPERLLFIIDGFDELKPSFHDPQGPWCLCWEEKRPTELLLNSLIRKKLLPELSLLITTRPTALEKLHRLLEHPRHVEILGFSEAERKEYFYKYFHNAEQAGQVFNYVRDNEPLFTMCFVPLVCWVVCTCLQQQLEGGGLLRQTSRTTTAVYMLYLLSLMQPKPGAPRLQPPPNQRGLCSLAADGLWNQKILFEEQDLRKHGLDGEDVSAFLNMNIFQKDINCERYYSFIHLSFQEFFAAMYYILDEGEGGAGPDQDVTRLLTEYAFSERSFLALTSRFLFGLLNEETRSHLEKSLCWKVSPHIKMDLLQWIQSKAQSDGSTLQQGSLEFFSCLYEIQEEEFIQQALSHFQVIVVSNIASKMEHMVSSFCLKRCRSAQVLHLYGATYSADGEDRARCSAGAHTLLVQLPERTVLLDAYSEHLAAALCTNPNLIELSLYRNALGSRGVKLLCQGLRHPNCKLQNLRLKRCRISSSACEDLSAALIANKNLTRMDLSGNGVGFPGMMLLCEGLRHPQCRLQMIQLRKCQLESGACQEMASVLGTNPHLVELDLTGNALEDLGLRLLCQGLRHPVCRLRTLWLKICRLTAAACDELASTLSVNQSLRELDLSLNELGDLGVLLLCEGLRHPTCKLQTLRLGICRLGSAACEGLSVVLQANHNLRELDLSFNDLGDWGLWLLAEGLQHPACRLQKLWLDSCGLTAKACENLYFTLGINQTLTDLYLTNNALGDTGVRLLCKRLSHPGCKLRVLWLFGMDLNKMTHSRLAALRVTKPYLDIGC
In the case of B1, the “NF-kB activity (relative luciferase activity, pNF-kB-Luc reporter in 293T cells)” value [2] is reported as 150 fold.

B2: CARD of CARD-5 (mammalian two-hybrid construct) (other, UniProt Q9ULZ3 107-195, looked up)
chain: AAKPGLHFIDQHRAALIARVTNVEWLLDALYGKVLTDEQYQAVRAEPTNPSKMRKLFSFTPAWNWTCKDLLLQALRESQSYLVEDLERS
notes: domain: CARD; also called CARD domain of CARD-5; the CARD of CARD-5 (ASC); not shown: two-hybrid fusion partner from a pCMV/AD or pCMV/BD plasmid
In the case of B2, the “fold activation of luciferase activity (mammalian two-hybrid)” value [3] is reported as 24 fold.
